Here are results for 167 variants from the RNAGym collection of RNA variant scans (doi:10.7554/elife.90254).

B1: LINE1-mini (parent)
chain: GGCAGAGCUCAACACAGCGUGGCAAAGUGGCUGUGGCUAGACUGCC

The variants in this series derive from B1. As to the kind of experiment: self-cleavage, relative activity (ratio to wild type); higher = more cleavage; in vitro, sequencing; the parent is a self-cleaving ribozyme.
On to G21A G22A, for which the self-cleavage turned out to be 1.3.

For the variant G21A G22U, the self-cleavage was 0.56.

Take U20C G36A: the self-cleavage amounted to 0.11.

U20C G36C: the self-cleavage amounted to 0.07.

As for U20C G36U, the self-cleavage turned out to be 0.15.

Turning to U20A C42U, the self-cleavage is 0.12.

For U20A C42A, the self-cleavage was found to be 0.11.

Regarding U20A C42G, the self-cleavage was determined as 0.04.

U20G G21U: the self-cleavage stood at 0.97.

As for U20G G21C, the self-cleavage is 0.46.

As for U20G G21A, the self-cleavage stood at 0.69.

For U20C U34C, the self-cleavage was 0.18.

Regarding U20C U34G, the self-cleavage was found to be 0.22.

In the case of U20C U34A, the self-cleavage came to 0.12.

Consider G21A C42U, for which the self-cleavage worked out at 1.82.

G21A C42A: the self-cleavage worked out at 0.54.

As to G21A C42G, the self-cleavage was found to be 0.06.

With U20G G44A, the self-cleavage stood at 0.25.

As to U20G G44U, the self-cleavage was found to be 0.23.

Take U20G G44C: the self-cleavage was 0.26.

Take G21A A26G: the self-cleavage was found to be 1.94.

Regarding G21A A26U, the self-cleavage is 1.89.

U20G C31A: the self-cleavage was 0.07.

As to U20G C31G, the self-cleavage stood at 0.04.

As for U20G C31U, the self-cleavage worked out at 0.11.

Regarding U20A G40A, the self-cleavage is 0.1.

Consider U20A G40U, for which the self-cleavage is 0.08.

As for U20A G40C, the self-cleavage is 0.06.

As to U20A U32G, the self-cleavage amounted to 0.08.

On to U20A U32C, for which the self-cleavage was determined as 0.09.

For the variant U20A U32A, the self-cleavage amounted to 0.06.

As for U20G C46U, the self-cleavage turned out to be 0.44.

For the variant U20G C46A, the self-cleavage was determined as 0.78.

U20G C46G: the self-cleavage came to 0.45.

As to G21A U28G, the self-cleavage came to 1.2.

On to G21A U28A, for which the self-cleavage amounted to 1.94.

For G21A U28C, the self-cleavage was 1.44.

For the variant U20A C45U, the self-cleavage was 1.4.

Turning to U20A C45G, the self-cleavage was 0.21.

With U20A C45A, the self-cleavage was 0.77.

Take G21A C31U: the self-cleavage was 0.63.

Take G21A C31G: the self-cleavage is 0.13.

Regarding G21A C31A, the self-cleavage was determined as 0.12.

Turning to U20C A24U, the self-cleavage was 0.67.

Turning to U20C A24C, the self-cleavage is 0.31.

For the variant U20C A24G, the self-cleavage stood at 0.44.

U20G G40C: the self-cleavage is 0.04.

U20G G40A: the self-cleavage was found to be 0.06.

Turning to U20G G40U, the self-cleavage turned out to be 0.13.

On to G21A G44U, for which the self-cleavage came out at 0.56.

As for G21A G44A, the self-cleavage was found to be 0.98.

For G21A G44C, the self-cleavage came to 0.52.

As to U20C U43A, the self-cleavage is 0.05.

For U20C U43G, the self-cleavage was found to be 0.01.

Turning to U20C U43C, the self-cleavage came out at 0.09.

In the case of U20A C37A, the self-cleavage is 0.05.

For the variant U20A C37G, the self-cleavage was found to be 0.03.

U20A C37U: the self-cleavage worked out at 0.05.

U20C G30C: the self-cleavage is 0.98.

In the case of U20C G30A, the self-cleavage turned out to be 0.45.

On to U20C G30U, for which the self-cleavage came to 0.41.

For the variant U20G A24C, the self-cleavage is 0.28.

Consider U20G A24G, for which the self-cleavage was found to be 0.61.

Regarding U20G A24U, the self-cleavage amounted to 0.54.

In the case of U20A U34G, the self-cleavage came out at 0.25.

For the variant U20A U34A, the self-cleavage is 0.08.

For the variant U20A U34C, the self-cleavage came to 0.27.

Take G19U U43C: the self-cleavage came to 0.07.

Regarding G19U U43G, the self-cleavage is 0.02.

Turning to G19U U43A, the self-cleavage stood at 0.06.

U20A C31A: the self-cleavage worked out at 0.09.

Consider U20A C31G, for which the self-cleavage amounted to 0.08.

Turning to U20A C31U, the self-cleavage worked out at 0.17.

Regarding U20A G36U, the self-cleavage was determined as 0.05.

In the case of U20A G36C, the self-cleavage was found to be 0.07.

As to U20A G36A, the self-cleavage is 0.26.

As for U20C C46G, the self-cleavage is 0.47.

Take U20C C46U: the self-cleavage turned out to be 0.42.

On to U20C C46A, for which the self-cleavage was found to be 0.7.

As to G19U U28A, the self-cleavage is 0.63.

As to G19U U28C, the self-cleavage is 0.67.

For G19U U28G, the self-cleavage came to 0.73.

As to G19U U20G, the self-cleavage was found to be 0.77.

For the variant G21A U32C, the self-cleavage worked out at 0.48.

With G21A U32A, the self-cleavage was determined as 0.08.

Consider G21A U32G, for which the self-cleavage is 0.1.

For the variant U20C C45G, the self-cleavage stood at 0.3.

As for U20C C45U, the self-cleavage was found to be 1.12.

For the variant U20C C45A, the self-cleavage turned out to be 0.34.

Take U20G C45G: the self-cleavage came to 0.25.

Take U20G C45A: the self-cleavage worked out at 0.29.

For the variant U20G C45U, the self-cleavage was found to be 1.62.

With U20C G27C, the self-cleavage is 0.28.

For the variant U20C G27U, the self-cleavage is 0.31.

Regarding U20C G27A, the self-cleavage stood at 0.78.

For the variant U20C A25C, the self-cleavage is 0.75.

With U20C A25G, the self-cleavage came to 0.53.

Take U20C A25U: the self-cleavage is 1.02.

Take U20G G29U: the self-cleavage was 0.48.

Turning to U20G G29C, the self-cleavage was determined as 0.35.

With U20G G29A, the self-cleavage turned out to be 1.02.

For U20C G40C, the self-cleavage was found to be 0.06.

Take U20C G40U: the self-cleavage came out at 0.1.

Consider U20C G40A, for which the self-cleavage came out at 0.09.

G21A U34A: the self-cleavage is 0.08.

For the variant G21A U34G, the self-cleavage came out at 0.64.

As to G21A U34C, the self-cleavage is 0.14.

As to U20C C23U, the self-cleavage was determined as 0.61.

With U20C C23A, the self-cleavage worked out at 0.49.

Take U20C C23G: the self-cleavage was determined as 0.44.

As for U20A G29A, the self-cleavage was 0.51.

In the case of U20A G29C, the self-cleavage was determined as 0.55.

In the case of U20A G29U, the self-cleavage was 0.45.

In the case of U20A G33C, the self-cleavage is 0.04.

Take U20A G33U: the self-cleavage came to 0.07.

Turning to U20A G33A, the self-cleavage is 0.13.

U20A G27C: the self-cleavage is 0.24.

Take U20A G27A: the self-cleavage worked out at 0.83.

On to U20A G27U, for which the self-cleavage stood at 0.81.

Regarding U20G G27A, the self-cleavage worked out at 0.72.

For the variant U20G G27U, the self-cleavage stood at 0.25.

In the case of U20G G27C, the self-cleavage was 0.38.

As for G21A G33A, the self-cleavage was 0.08.

In the case of G21A G33C, the self-cleavage worked out at 0.12.

Regarding G21A G33U, the self-cleavage worked out at 0.26.

With G21A A39C, the self-cleavage turned out to be 0.68.

In the case of G21A A39G, the self-cleavage is 0.14.

For G21A A39U, the self-cleavage was determined as 1.82.

U20A A24U: the self-cleavage amounted to 0.62.

Take U20A A24C: the self-cleavage was 0.28.

As to U20A A24G, the self-cleavage was 0.68.

Consider U20G A25G, for which the self-cleavage came out at 0.48.

In the case of U20G A25U, the self-cleavage stood at 1.21.

With U20G A25C, the self-cleavage stood at 0.19.

On to G19U U34G, for which the self-cleavage was 0.16.

Take G19U U34A: the self-cleavage was 0.13.

On to G19U U34C, for which the self-cleavage stood at 0.17.

As to G21A C37A, the self-cleavage was 0.08.

Take G21A C37G: the self-cleavage worked out at 0.04.

For the variant G21A C37U, the self-cleavage turned out to be 0.07.

As for U20A A39U, the self-cleavage amounted to 0.62.

For the variant U20A A39C, the self-cleavage stood at 0.08.

As for U20A A39G, the self-cleavage amounted to 0.06.

As to G21A G27C, the self-cleavage came to 1.22.

In the case of G21A G27A, the self-cleavage was 1.01.

Turning to G21A G27U, the self-cleavage came out at 1.35.

U20G A41U: the self-cleavage was found to be 0.42.

As for U20G A41G, the self-cleavage was 0.19.

Turning to U20G A41C, the self-cleavage is 0.02.

Take G19U U38G: the self-cleavage turned out to be 0.02.

Consider G19U U38A, for which the self-cleavage was 0.38.

As to G19U U38C, the self-cleavage was found to be 0.3.

For the variant U20A A41C, the self-cleavage stood at 0.05.

Turning to U20A A41U, the self-cleavage was found to be 0.35.

Take U20A A41G: the self-cleavage is 0.36.

U20A G44U: the self-cleavage is 0.2.

Take U20A G44C: the self-cleavage came to 0.16.

For the variant U20A G44A, the self-cleavage worked out at 0.51.

Turning to U20A A26U, the self-cleavage is 0.91.

Take U20A A26C: the self-cleavage worked out at 0.76.

Consider U20A A26G, for which the self-cleavage was determined as 0.91.

Regarding G21C A24U, the self-cleavage was 0.63.

Take G21C A24G: the self-cleavage was 0.44.

In the case of G21C A24C, the self-cleavage came out at 0.43.

For G21A G29U, the self-cleavage was 2.19.

For G21A G29A, the self-cleavage is 1.

Take G21A G29C: the self-cleavage came out at 0.63.
